{"source": "patent US20240218057A1", "about": "(ROCKEFELLER UNIVERSITY, published 2024)", "binders": {"B1": {"name": "C1027 (antibody, V domains shown)", "VH": "EVQLVESGGGLVQPGGSLRLSCAASGFIVTTNYMSWVRQAPGKGLEWVSLIYPGGSTFYADSVEGRFTISRDNSKNTLYLQVNSLRVEDTAVYYCARDTFGRGDDHWGQGTLVTVSS", "VL": "DIQMTQSPSSLSASVGDRVTITCQASQDINIYLNWYQQRPGKAPKLLIYDASNLQTGVPSRFSGSGSGTDFTITISSLQPEDIATYYCQQYDNLPRSFGQGTKLEI"}, "B2": {"name": "C853 (antibody, V domains shown)", "VH": "QVQLQESGPGLVKASQTLSLTCTVSGGSFRSGGYYYNWIRQHPGKGLEWIGYIFYTGVTYYNPSLKSRVSISVDTSKNQLSLNLTSVTAADTAVYYCARGSYSDYNGGWDYWGRGTLVTVS", "VL": "QSALTQPPSASGSPGQSVTISCIGTSSDVGGYNYVSWYQHHPGKAPKLIIYEVSKRPSGVPDRFSGSKSGNTASLTVSGLQADDEADYYCSSYAGSNNWVFGGGTKLTV"}, "B3": {"name": "C1008 (antibody, V domains shown)", "VH": "EVQLVESGGGLIQPGGSLRLSCAASGFTVSSNYMSWVRQAPGKGLEWVSVIYSGGSTYYADSVKGRFTISRDNSKNTLYLQMNSLRAEDTAVYYCARVVGYDFWSGYDGGYFDYWGQGTLVTVSS", "VL": "QSALTQPASVSGSPGQSITISCTGTSSDVGSYNLVSWYQQHPGKAPKLMIYEVSKRPSGVSNRFSGSKSGNTASLTISGLQAEDEADYYCCSYAGSSTWVFGGGTKLTVL"}, "B4": {"name": "C1009 (antibody, V domains shown)", "VH": "EVQLVESGGGLLQPGGSLRLSCAASGFSVSSNYMTWVRQAPGKGLEWVAAIYSGDSTYYVDSVKGRFIISRDNSKNTVYLHLSSLRAEDTAVYYCARLVGYDFRSGSDGGYFDYWGHGTLVTVSS", "VL": "B3 VL with V29I, S31N, E52D, A86T"}, "B5": {"name": "C951 (antibody, V domains shown)", "VH": "QVQLQESGPRLVKPSGTLSLTCAVSGGSISTTNWWSWVRQPPGKGLEWIGEIHHSGNTNYNPSLKSRVTISVDRSKNQFSLKLSSVTAADTAVYFCARDGGRPGDPFDIWGQGTMVTVSS", "VL": "QSALTQPASVSGSPGQSITISCTGTSSDVGGYNYVSWYQQHPGKAPNLMIYDVSDRPSGVSNRFSGSKSGNTASLTISGLQAEDEADYYCNSFTSNSTRVFGTGTKVTV"}, "B6": {"name": "C953 (antibody, V domains shown)", "VH": "QVQLVQSGAEVKKPGSSVKVSCKASGGTFSSYAISWVRQAPGQGLEWMGRIIPILGIANYAQKFQGRVTITADKSTSTAYMELSSLRSEDTAVYYCARDSEYSSSWYSRGYYGMDVWGQGTTVTVSS", "VL": "not shown"}, "B7": {"name": "C954 (antibody, V domains shown)", "VH": "QVQLVQSGAEVKKPGSSVKVSCKASGDTFTNYAFSWMRQAPGQGLEWMGRIIPILGIVKYSQKFQDRVRISADKSTSTAYMDLSSLRSEDTAMYYCARDSEFSTSWFSRGYHGMDVWGQGTTVTVSS", "VL": "DIVMTQSPLSLPVTPGEPASISCRSSQSLLHGDGYNYLDWYLQKPGQSPHLLIYLGSNRTSGVSDRFSGSGSGTDFTLKISRVEAEDVGVYYCMQALQTPPTFGGGTKVEIK"}, "B8": {"name": "C960 (antibody, V domains shown)", "VH": "QVQLVESGGGVVQPGRSLTLSCTASGFTFNRFAMFWVRQAPGKGLEWVAVISFDGSYEHYAESVKGRFAIFRDNPKNTLYLQMNSLRAEDTAVYYCAKSPINYCANGVCYPDSWGQGTLVTVSS", "VL": "NFMLTQPHSVSESPGKTVTISCTGSSGSIANNYVQWYQQRPGSAPTTVIFEDTQRPSGVPDRFSGSIDSSSNSASLNISGLKPEDEADYYCQSFDVNSRWVFGGGTKLTVL"}, "B9": {"name": "C908 (antibody, V domains shown)", "VH": "EVQLVQSGAEVKKPGESLKISCKASGYSFTIYWIGWVRQMPGKGLEWMGIIYPGESETRYSPSFQGQVTISADKSISTAYLQWRSLKASDTAMYYCARGGPPGGVKLELTDYWGQGTLVTVSS", "VL": "not shown"}, "B10": {"name": "C843 (antibody, V domains shown)", "VH": "QVQLVESGGGVVQPGRSLRLSCAASGFTFSRYAMHWVRQAPGKGLEWVAVISYDGSNKYYATSLKGRCTISRDNSKNTLYLQMNSLRAEDTAVYFCAKQIGEYCSGGNCYQGSLDYWGQGTLVTVSS", "VL": "DIQMTQSPSSLSASVGDRVTITCQASQDISNYLNWYQQKPGKAPKLLIYDASDLETGVPSTFSGSGSGTDFTLTISSLQPEDFATYYCQQYDIVPFTFGPGTKVDIK"}, "B11": {"name": "C844 (antibody, V domains shown)", "VH": "EVQLVESGGGLVKPGGSLRLSCVATGFSFSDAWMNWVRQAPGKGLEWVGRIRSEIADGTTDYAAPVKGRFTISRDDARNTLYLQMNSLEIEDTAVYYCTTGVVVVVSSSPDDAFDVWGQGTMVTVSS", "VL": "DIQMTQSPSSLSASVGDRVTITCRASQSIGHYLNWYQQKPGKAPKLLIYAASSLQSGVPSRFSGSGSGAGFTLTVNGLQPEDLATYYCQQYYTTPPTFGQGTKVEIK"}, "B12": {"name": "C845 (antibody, V domains shown)", "VH": "QVQLQESGPGLVKPSQTLSLTCTVSGASISSGEYYWSWVRQPPGKGLEWVGYIYYSGSTYYNPSLKSRVTISVDTSKNHFSLKLKSLTAADTAVYFCATGGLSAFGELFPHDKWGQGTLVTVSS", "VL": "EIVLTQSPATLSLSPGERATLSCRASQSVGSDLAWYQQKPGQAPRLLIYDTSNRATGIPARFSGSGSGTDFTLTISSLDPADFAVYYCQQRTNWLFSFGPGTKVDIK"}, "B13": {"name": "C881 (antibody, V domains shown)", "VH": "EVQLVESGGGLIQPGGSLRLSCAVSGVAVSTNYMSWVRQAPGQGLEWVSTIYSGDTTYYSDSVKGRFTISRDNSKNTFYLQMNSLRVPDTAVYYCARLGGVFNGFNGSFDYWGQGTLVTVS", "VL": "QSALTQPASVSGSPGQSITISCIGTSSDFENYNLVSWYQQHPGKAPKVMIYEDTKRPSGVSNRFSGSKSANTASLTISGLQAEDEAEYYCCSYAGASTWVFGGGTRVTVV"}, "B14": {"name": "C887 (antibody, V domains shown)", "VH": "EVQLVESGGDLVQPGGSLRLSCAASGFTFTTYSMSWVRQAPGKGLEWISYINSGSANIHYADSVKGRFTVSRDNAKNSLYLQMNSLRDEDTAVYYCARGDCLSSSCYSLDYWGQGALVTVSS", "VL": "DIQMTQSPSSLSASVGDRVTITCRASQSITSYLSWYLQKPGEAPKLLIYAASILQSGVPSRFGGNGSGTDFTLTISSLQPEDFATFYCQQTYRSPLTFGGGTKVEIK"}, "B15": {"name": "C889 (antibody, V domains shown)", "VH": "EVQLVESGGGLVQPGGSLRLSCAVSGFTVSSNYMTWVRQAPGKGLEWVSLIYSGTSAFYADSVKGRFTISRDNSKNTLYLQMSSLRVNDTAIYYCARDLRKDDGYSYGAFDYWGQGTLVTVSS", "VL": "QSALTQPASVSGSPGQSITISCSGTSSDVGAHNYVSWYQQYPGKAPKLMIFDVTDRPSGVSNRFSGSKSGNTASLTISGLQAEDEADYYCTSYTTNRSWVFGGGTKVTVL"}, "B16": {"name": "C890 (antibody, V domains shown)", "VH": "QVQLVQSGAEVKKPGSSVKASCKASGGTFSTYTISWVRQAPGHGLEWMGRIIPIFGTTKYAQKFQGRVTITADESTTTAYLELSSLRSEDTAVYYCTINTQWDLVPRWGQGTLVTVSS", "VL": "not shown"}, "B17": {"name": "C891 (antibody, V domains shown)", "VH": "EVQLVESGGGLVKPGGSLRLSCAVSGFTFSNVWMSWVRQAPGKGLEWVGRIKSKTDGGTTDYAAPVKGRFTISRDDSKNTLYLQMNSLKTEDTAVYYCTSQLWLRGPGDYWGQGTLVTVSS", "VL": "B8 VL with N31S, F50Y, T53N, N77T, P83T, F94Y, V96S, N97S, S98L, R99N"}, "B18": {"name": "C892 (antibody, V domains shown)", "VH": "EVQLVESGGGLVKPGGSLKVSCTASGFTFTDAWMSWVRQAPGKGLEWVGRIKSRAYGGTTDYGAPVQGRFTISRDDSINTLYLQMNSLTAEDTAVYYCTSQLWLRGPGDYWGQGTLVTVSS", "VL": "NFMLTQPHSVSESPGKTVTISCTGSSGSIASNYVHWYQQRPGGAPTTVIYEDNQRPSGVPDRFSGSIDISSNSASLTISGLKTEDEGDYYCQSYDSGVNWVFGGGTKLTVL"}, "B19": {"name": "C901 (antibody, V domains shown)", "VH": "QVQLVESGGGVVQPGRSLRIACGASGFTFSTYDMHWVRQAPVKGLEWVAVISRDGSGKFYADSVKGRFTISRDNSKKTLYLQMDSLRPEDTAMYYCARDFESRTWDPPKYYYALDVWGQGTTVTVSS", "VL": "DIQMTQSPSSLSASVGDRVTITCRASQSISTYLNWYQQKPGKAPSLLIYAASSLYSGVPSRFSGSGSGTDFSLTISSLQPEDFATYYCQQTYTTPTWTFGQGTKVEIK"}, "B20": {"name": "C902 (antibody, V domains shown)", "VH": "EVQLVQSGAEVKKPGESLRISCKGSGYSFHTYWIHWVRQMPGKGLEWMGKIDPSDSYTNYSPSFQGHVTFSADRSISTAYLQWSSLKASDTATYYCARLSWSPPTRTTDEKNWFDPWGQGTLVTVSS", "VL": "DIQLTQSPSFLAASAGDRVTITCRASQGISSYLAWYQQKPGKAPKVLIYAASTLQSGVPSRFSGSGSGTEFTLTISSLQPEDCATYYCQQFNSDPLTFGGGTKVEIK"}, "B21": {"name": "C970 (antibody, V domains shown)", "VH": "QVQLQESGPGLVKPSETLSLTCTVSGDSINKYYWGWIRQPPGKGLEWIGYIYYSGTTNYNPSLKSRVTISVDTSKTQFSLKLSSVTAADTAVYYCARLLSTEWSFNWFDPWGQGTLVTVSS", "VL": "SYELTQPPSVSVSPGQTASITCSGDTLGDKYACWYQQKPGQSPLLVIYQNNKRPSGIPERFSGSNSGNTATLTISGTQAMDEADYYCQAWDSSTAYVFGTGTKVTVL"}, "B22": {"name": "C980 (antibody, V domains shown)", "VH": "QVQLVQSGAEVKKPGSSVKVSCEASGGTFSSDSINWVRQAPGQGLEWMGRIIPIFGATNYAQKFQGRVTITADKSTDTVYMEVSSLTSEDTAVYYCARGGIAVGGWWFDPWGQGTLVTVSS", "VL": "EIVMTQSPATLSVSPGERATLSCRASESVSSKLAWYQQKPGQAPRLLIYGASTRATGISARFSGSGSGTDFTLTISSLESEDFAVYYCQQYNHWPPNTFGQGTKLEIK"}}, "note": "Where a chain is given by its changes, count along the chain named."}
{"target": "T1, SARS-CoV-2 receptor-binding domain (WT RBD; S protein residues 319-539) (SARS-CoV-2, UniProt P0DTC2 319-539)", "T1 construct": "also called SARS-COV-2 RBD", "assay": "BLI (Octet Red), IgG on protein A biosensor, WT RBD in solution, 1:1 fit", "units": {"Kd": "nM"}}
{"binder": "B1", "Kd": 0.0114}
{"binder": "B2", "Kd": 5.88}
{"binder": "B3", "Kd": 500}
{"binder": "B4", "Kd": 2.13}
{"binder": "B5", "Kd": 3.03}
{"binder": "B6", "Kd": 164}
{"binder": "B7", "Kd": 7.14}
{"binder": "B8", "Kd": 6.67}
{"binder": "B9", "Kd": 0.0026}
{"target": "T2, SARS-CoV-2 receptor-binding domain (RBD), S protein residues 319-539 (SARS-CoV-2, UniProt P0DTC2 319-539)", "T2 construct": "also called WT RBD; SARS-COV-2 RBD", "assay": "ELISA on coated RBD", "units": {"EC50": "ng/mL"}}
{"binder": "B10", "EC50": 1.34}
{"binder": "B11", "EC50": 1.28}
{"binder": "B12", "EC50": 1.39}
{"binder": "B13", "EC50": 1.44}
{"binder": "B14", "EC50": 2.53}
{"binder": "B15", "EC50": 4.25}
{"binder": "B16", "EC50": 2.2}
{"binder": "B17", "EC50": 1.44}
{"binder": "B18", "EC50": 2.9}
{"binder": "B19", "EC50": 2.16}
{"binder": "B20", "EC50": 3.4}
{"binder": "B21", "EC50": 3.71}
{"binder": "B22", "EC50": 4.07}
